Experimental data taken from patent US20250066509A1 (SHANGHAI JMT BIO TECHNOLOGY, published 2025).
Substitutions are numbered along the chain they refer to. Like-named read-outs stand apart in the source and are kept apart here.

B1: CB-8 (antibody, V domains shown)
VH: EVQLVQSGAEVKKPGASVKVSCKASGYTFTSYGISWVRQAPGQGLEWMGWISAYNGNTNYAQKLQGRVTMTTDTSTSTAYMELRSLRSDDTAVYYCATLYGSGSLYYWGQGTLVTVSS
VL: DIVMTQSPSSLSAPVGDRVTITCQASQDIRNYINWFQQKPGKAPKLLIYAASSLQSGVPSRFSGSGSGTDFTLTISSLQPEDFATYYCQQSYSTPQWTFGQGTKVEIK
B2: CB-8-42 (antibody, human IgG1, kappa, V domains shown)
VH: B1 VH with N55S, Y100L, G101P
VL: DIVMTQSPSSLSAPVGDRVTITCQASQDIRNYINWFQQKPGKAPKLLIYAASYLQSGVPSRFSGSGSGTDFTLTISSLQPEDFATYYCQQSYSTPQWTFGQGTKVEIKR
B3: CB-8-41 (antibody, human IgG1, V domains shown)
VH: B1 VH with T28L, N55T
VL: B1 VL with S53H
B4: CB-8-37 (antibody, human IgG1, V domains shown)
VH: B1 VH with T28A, N55S
VL: B1 VL with S53F
B5: CB-8-26 (antibody, human IgG1, V domains shown)
VH: B1 VH with T30K, N57R
VL: B1 VL with S53G
B6: CB-8-13 (antibody, human IgG1, V domains shown)
VH: B1 VH with T28R, N57R
VL: B1 VL with S53R
B7: CB-8-23 (antibody, human IgG1, V domains shown)
VH: B1 VH with Y32G, N57R
VL: B1 VL with S53F
B8: CB-8-24 (antibody, V domains shown)
VH: B1 VH with Y100L, G101P
VL: B1 VL
B9: CB-8-14 (antibody, human IgG1, V domains shown)
VH: B1 VH with T30R, N55T
VL: B1 VL with L54R
B10: CB-8-40 (antibody, human IgG1, V domains shown)
VH: B1 VH with N55S
VL: B1 VL with S53Y

Experiments:
[1] = biological target: T1, cynomolgus monkey FGFR1c/βKlotho receptor (cynomolgus monkey, UniProt A0A2K5WB58 1-1044); assay: cell-based or functional assay
[2] = biological target: T1, cynomolgus monkey FGFR1c/βKlotho …; assay: cell-based or functional assay; remark: listed apart in the source
[3] = biological target: T2, human αKlotho extracellular segment protein (human, UniProt Q9UEF7 34-981); assay: ELISA; extracellular segment protein on nickel-coated plate, antibody titrated, anti-human IgG Fab-HRP
T2 construct: extracellular domain
T2 sequence (looked up): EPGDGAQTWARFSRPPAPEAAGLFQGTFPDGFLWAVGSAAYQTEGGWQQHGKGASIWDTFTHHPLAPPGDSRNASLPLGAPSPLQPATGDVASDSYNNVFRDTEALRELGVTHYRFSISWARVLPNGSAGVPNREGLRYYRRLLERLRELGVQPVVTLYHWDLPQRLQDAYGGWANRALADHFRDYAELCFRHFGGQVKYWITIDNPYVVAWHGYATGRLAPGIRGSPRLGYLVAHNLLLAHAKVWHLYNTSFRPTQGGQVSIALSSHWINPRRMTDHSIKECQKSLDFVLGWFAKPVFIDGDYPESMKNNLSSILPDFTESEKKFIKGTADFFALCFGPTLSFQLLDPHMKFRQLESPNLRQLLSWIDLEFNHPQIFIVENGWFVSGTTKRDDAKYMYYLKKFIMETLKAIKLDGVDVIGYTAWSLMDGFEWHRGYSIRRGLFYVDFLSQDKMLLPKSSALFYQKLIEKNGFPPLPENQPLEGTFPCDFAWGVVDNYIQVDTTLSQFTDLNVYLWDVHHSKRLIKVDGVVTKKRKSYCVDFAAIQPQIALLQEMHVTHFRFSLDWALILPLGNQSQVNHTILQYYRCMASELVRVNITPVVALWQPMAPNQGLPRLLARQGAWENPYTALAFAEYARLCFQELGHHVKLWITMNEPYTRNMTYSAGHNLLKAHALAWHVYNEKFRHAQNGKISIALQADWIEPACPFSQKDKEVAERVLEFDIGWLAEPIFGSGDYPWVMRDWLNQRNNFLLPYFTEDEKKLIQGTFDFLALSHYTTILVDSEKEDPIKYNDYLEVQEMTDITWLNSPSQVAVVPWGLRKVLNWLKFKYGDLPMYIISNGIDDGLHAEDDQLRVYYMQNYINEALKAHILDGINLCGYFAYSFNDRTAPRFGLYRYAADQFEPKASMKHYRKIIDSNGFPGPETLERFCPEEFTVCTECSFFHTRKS
Method: In this Example, the binding of some antibodies in Example 1 to human βKlotho, human αKlotho, and mouse βKlotho was detected using an ELISA assay as described below. A solution of human βKlotho (R&D systems), human αKlotho (R&D systems), or mouse βKlotho (R&D systems) extracellular segment protein at a specified concentration was added to a nickel-coated 96-well plate (Pierce) and the plate was incubated overnight at room temperature. The next day, the plate was blocked with PBS/1% BSA, and then antibodies at various concentrations were added to the wells. After incubating the plate for 1.5 hours at room temperature, a HRP-labeled anti-human IgG Fab secondary antibody was added to the wells and the plate was incubated for 30 minutes at room temperature. After the substrate was added and reacted at room temperature for 15 minutes, the reaction-stopping solution was added. OD₄₅₀ values were read. Exemplary data of antibodies' binding to human βKlotho, human αKlotho, and mouse βKlotho in the ELISA assay are as follows.

[4] = biological target: T1, cynomolgus monkey FGFR1c/βKlotho …; assay: cell-based or functional assay; remark: listed apart in the source
[5] = biological target: human FGFR4/βKlotho receptor (human, UniProt P22455 22-802); assay: cell-based or functional assay
[6] = biological target: T3, human βKlotho extracellular segment protein (human, UniProt Q86Z14 53-996); assay: Gator BLI; antibody captured on Protein A probe, human βKlotho ECD 400 nM-50 nM in solution
T3 construct: Captured by nickel plate or anti-His antibody, so His-tagged; also called human βKlotho extracellular protein
T3 sequence: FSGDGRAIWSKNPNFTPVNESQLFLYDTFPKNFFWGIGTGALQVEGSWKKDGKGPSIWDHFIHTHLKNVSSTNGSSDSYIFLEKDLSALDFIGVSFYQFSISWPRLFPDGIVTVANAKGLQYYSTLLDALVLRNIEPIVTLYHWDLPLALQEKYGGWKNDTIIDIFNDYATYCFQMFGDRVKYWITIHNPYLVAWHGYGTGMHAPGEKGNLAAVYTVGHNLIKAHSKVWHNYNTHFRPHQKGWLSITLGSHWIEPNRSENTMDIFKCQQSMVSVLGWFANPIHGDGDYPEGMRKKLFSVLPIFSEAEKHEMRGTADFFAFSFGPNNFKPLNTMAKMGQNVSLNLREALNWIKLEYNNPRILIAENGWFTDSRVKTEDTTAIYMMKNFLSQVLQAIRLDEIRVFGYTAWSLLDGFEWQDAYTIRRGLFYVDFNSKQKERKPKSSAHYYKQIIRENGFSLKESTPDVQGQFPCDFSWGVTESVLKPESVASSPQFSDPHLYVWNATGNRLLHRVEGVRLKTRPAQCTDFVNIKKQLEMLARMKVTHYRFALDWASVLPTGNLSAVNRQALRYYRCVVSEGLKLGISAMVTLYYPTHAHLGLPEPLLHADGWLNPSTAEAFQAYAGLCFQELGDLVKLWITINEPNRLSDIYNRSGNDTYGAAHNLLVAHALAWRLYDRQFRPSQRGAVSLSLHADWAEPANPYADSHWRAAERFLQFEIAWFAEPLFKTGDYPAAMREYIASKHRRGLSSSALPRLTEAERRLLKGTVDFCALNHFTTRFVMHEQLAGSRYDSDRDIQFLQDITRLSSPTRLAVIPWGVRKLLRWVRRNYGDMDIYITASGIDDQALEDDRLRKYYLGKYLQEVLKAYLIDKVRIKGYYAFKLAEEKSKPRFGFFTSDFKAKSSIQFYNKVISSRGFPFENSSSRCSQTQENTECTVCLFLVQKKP
Method: The antibodies described above were tested for affinity using Gator (Gator bio). Briefly, an antibody was first captured using a probe coated with Protein A (Gator bio). After the baseline was monitored for 60 seconds, the antibody-to-the antigen binding was determined with the human βKlotho extracellular segment protein described above at varying concentrations (400 nM-50 nM). Then, the dissociation was detected in a K buffer (Gator bio). Meanwhile, the function of an antibody to activate the human or cynomolgus monkey FGFR1c/βKlotho receptor was detected using the reporter-based assay described in Example 2.

T1 sequence (A0A2K5WB58 entry or part of it): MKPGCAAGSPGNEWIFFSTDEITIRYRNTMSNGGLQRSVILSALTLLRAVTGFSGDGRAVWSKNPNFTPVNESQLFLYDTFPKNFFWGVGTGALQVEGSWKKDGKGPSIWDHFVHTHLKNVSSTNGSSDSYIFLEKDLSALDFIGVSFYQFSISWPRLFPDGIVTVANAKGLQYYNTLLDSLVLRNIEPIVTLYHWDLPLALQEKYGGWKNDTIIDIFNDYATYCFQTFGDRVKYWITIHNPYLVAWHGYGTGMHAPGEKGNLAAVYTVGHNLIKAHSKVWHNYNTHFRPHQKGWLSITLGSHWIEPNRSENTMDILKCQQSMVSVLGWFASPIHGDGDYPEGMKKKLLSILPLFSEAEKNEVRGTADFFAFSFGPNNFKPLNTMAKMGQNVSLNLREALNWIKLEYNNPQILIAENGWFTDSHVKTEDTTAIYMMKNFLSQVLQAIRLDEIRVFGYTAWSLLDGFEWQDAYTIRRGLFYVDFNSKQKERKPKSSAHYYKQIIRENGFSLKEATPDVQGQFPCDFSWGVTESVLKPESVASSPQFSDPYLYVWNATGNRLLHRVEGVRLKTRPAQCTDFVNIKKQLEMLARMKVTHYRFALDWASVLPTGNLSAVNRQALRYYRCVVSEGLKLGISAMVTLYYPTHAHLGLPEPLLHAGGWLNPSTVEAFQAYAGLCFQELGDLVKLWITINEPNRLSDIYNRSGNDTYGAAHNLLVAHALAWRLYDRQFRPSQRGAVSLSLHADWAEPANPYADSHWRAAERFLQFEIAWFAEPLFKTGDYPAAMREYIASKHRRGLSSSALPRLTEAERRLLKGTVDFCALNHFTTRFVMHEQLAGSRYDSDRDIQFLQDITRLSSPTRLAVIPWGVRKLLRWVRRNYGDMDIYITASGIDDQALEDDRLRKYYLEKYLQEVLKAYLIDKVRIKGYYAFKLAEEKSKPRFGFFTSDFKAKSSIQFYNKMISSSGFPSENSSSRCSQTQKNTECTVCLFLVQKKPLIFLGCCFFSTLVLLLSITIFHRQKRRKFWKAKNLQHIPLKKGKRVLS
Chain of human FGFR4/βKlotho receptor (P22455 22-802, chain 1 of 2): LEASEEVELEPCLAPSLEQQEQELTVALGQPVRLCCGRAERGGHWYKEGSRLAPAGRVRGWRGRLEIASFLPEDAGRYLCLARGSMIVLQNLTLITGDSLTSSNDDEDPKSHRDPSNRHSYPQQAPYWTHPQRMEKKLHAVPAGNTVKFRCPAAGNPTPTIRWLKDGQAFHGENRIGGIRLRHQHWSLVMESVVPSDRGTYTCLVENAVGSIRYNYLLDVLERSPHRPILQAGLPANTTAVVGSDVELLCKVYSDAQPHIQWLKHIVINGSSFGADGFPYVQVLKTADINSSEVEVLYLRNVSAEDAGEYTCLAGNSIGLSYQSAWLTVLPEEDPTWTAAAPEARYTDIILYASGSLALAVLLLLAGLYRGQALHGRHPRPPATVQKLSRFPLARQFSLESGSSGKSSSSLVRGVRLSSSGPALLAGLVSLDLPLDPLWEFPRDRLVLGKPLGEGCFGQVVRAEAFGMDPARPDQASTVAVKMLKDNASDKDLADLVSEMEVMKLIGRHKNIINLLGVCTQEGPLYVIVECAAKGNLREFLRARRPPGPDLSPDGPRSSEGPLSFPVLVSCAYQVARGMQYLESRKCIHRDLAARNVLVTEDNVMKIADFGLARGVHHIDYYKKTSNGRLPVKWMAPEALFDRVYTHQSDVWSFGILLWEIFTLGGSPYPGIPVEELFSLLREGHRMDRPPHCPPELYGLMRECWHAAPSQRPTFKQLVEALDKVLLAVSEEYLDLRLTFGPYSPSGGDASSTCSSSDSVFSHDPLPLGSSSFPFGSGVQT
Chain of human FGFR4/βKlotho receptor (chain, as listed by the source, chain 2 of 2): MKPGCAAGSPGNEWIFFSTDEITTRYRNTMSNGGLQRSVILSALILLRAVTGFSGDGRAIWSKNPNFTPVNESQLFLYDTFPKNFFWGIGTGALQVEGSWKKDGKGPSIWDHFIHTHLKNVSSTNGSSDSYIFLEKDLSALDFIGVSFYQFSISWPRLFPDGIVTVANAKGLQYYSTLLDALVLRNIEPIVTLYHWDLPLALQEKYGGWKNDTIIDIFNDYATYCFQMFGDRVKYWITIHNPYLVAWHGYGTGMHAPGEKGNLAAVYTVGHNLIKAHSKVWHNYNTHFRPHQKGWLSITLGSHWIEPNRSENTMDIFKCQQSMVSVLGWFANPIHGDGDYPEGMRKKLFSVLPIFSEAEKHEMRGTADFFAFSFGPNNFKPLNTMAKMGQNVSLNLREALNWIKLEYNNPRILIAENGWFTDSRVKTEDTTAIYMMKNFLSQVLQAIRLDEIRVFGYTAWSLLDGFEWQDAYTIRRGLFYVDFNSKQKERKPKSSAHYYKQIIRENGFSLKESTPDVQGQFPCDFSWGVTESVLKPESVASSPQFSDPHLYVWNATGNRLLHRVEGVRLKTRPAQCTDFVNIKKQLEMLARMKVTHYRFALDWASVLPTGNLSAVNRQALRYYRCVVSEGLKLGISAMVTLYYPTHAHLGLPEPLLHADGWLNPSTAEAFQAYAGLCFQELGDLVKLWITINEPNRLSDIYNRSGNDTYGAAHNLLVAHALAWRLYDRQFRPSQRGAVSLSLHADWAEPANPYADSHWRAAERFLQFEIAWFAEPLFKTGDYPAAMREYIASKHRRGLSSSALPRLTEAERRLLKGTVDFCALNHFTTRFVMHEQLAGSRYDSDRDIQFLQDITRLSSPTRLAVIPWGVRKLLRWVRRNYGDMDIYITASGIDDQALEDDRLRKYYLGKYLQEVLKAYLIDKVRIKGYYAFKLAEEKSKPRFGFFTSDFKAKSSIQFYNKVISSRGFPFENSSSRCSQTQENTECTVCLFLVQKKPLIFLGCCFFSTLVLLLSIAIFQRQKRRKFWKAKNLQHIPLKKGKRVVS

Row | Binder | EC50 for antibody-induced cell activation, as determined by the reporter-based assay [2] [nM] | other results
1 | B1 | 2.86 | EC50, luciferase reporter-based assay (receptor activation) [1]: 4.89 nM; EC50 [3]: > 100 nM
2 | B2 |  | EC50, luciferase reporter-based assay (receptor activation) [4]: 0.17 nM; EC50, luciferase reporter-based assay (receptor activation) [5]: > 100 nM
3 | B3 | 1.57 | 
4 | B4 | 0.54 | 
5 | B5 | 0.71 | 
6 | B6 | 0.88 | 
7 | B7 | 0.55 | Kd [6]: 7.08 nM; koff [6]: 0.000173 s⁻¹; kon [6]: 24500 M⁻¹ s⁻¹
8 | B8 | 0.15 | 
9 | B9 | 1.08 | 
10 | B10 | 0.49 | 
